One may read the Kd as the constant that tells how readily two partners part at equilibrium.

Among the data in paper PMC9017247 are Kd and stoichiometry N (rGRFT per spike) values, retold here.

In test [1] the target is recombinant SARS-CoV-2 spike protein (SARS-CoV-2) (UniProt P0DTC2). Put plainly: ITC; MicroCal ITC200; 50 uM rGRFT injected (2 uL, 120 s intervals) into the cell with 280 uL of 1 uM spike protein; 1x PBS, pH 7.4.
Test [2] has the same target. The test can be described thus: QCM-D; spike protein (400 ug/mL) immobilised by EDC/NHS on an 11-MUA carboxylated gold sensor, ethanolamine-blocked; 0.5-10 uM rGRFT flowed in turn at 20 uL/min, 1x PBS.

On to “recombinant griffithsin lectin protein (rGRFT) (from UniProt P84801 1-121) (natural protein)”, for which, in test [1], the Kd came out at 9.9 µM and the stoichiometry N (rGRFT per spike) turned out to be 6. Moreover, the Kd in test [2] came to 1.6 µM.
